Experimental findings from publication PMC5027616, “IL-13Rα2 uses TMEM219 in chitinase 3-like-1-induced signalling and effector responses” (Nature Communications, 2016) are described below.

One may read the Kd as the free concentration of one partner at which half of the binding sites on the other are occupied at equilibrium, for simple one-to-one binding.

In the experiment the target is T1, IL-13Rα2-Chi3l1 complexes (labelled) (UniProt Q14627 27-343; P36222 22-383, BODPY-TRM-X-succinimidyl ester label).
T1 construct: IL-13 receptor alpha 2, ectodomain; as m13; chitinase 3-like-1; as m12; The legend calls the complexes labelled; also called IL-13Rα2 complexed with Chi3l1; source: both proteins from the baculovirus-insect cell expression system, purified; complex formed before the titration
T1 sequence (Q14627 27-343, chain 1 of 2): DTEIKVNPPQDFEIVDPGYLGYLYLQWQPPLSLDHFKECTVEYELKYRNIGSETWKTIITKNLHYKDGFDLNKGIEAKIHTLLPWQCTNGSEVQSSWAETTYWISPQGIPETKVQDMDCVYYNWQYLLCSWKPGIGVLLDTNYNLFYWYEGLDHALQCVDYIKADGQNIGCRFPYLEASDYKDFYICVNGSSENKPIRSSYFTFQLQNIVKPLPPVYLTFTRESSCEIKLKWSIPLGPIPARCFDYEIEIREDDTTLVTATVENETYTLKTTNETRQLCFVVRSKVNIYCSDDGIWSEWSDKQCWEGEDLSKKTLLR
T1 sequence (P36222 22-383, chain 2 of 2): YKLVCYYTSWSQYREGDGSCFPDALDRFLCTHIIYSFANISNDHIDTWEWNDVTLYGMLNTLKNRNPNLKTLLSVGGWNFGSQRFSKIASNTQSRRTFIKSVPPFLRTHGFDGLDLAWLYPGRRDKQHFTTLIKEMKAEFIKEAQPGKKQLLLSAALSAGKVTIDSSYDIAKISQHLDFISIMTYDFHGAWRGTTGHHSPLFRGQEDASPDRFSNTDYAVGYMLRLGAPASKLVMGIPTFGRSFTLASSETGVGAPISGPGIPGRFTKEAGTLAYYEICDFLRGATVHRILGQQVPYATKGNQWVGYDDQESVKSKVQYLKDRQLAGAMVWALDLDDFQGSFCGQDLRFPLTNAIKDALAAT
Put plainly: fluorescence polarisation; fluorescence anisotropy; serial dilutions of TMEM219 in 13 nm nanodisc (10 nM-10 μM) added to 10 nM labelled protein or complex; PBS for labelling; empty nanodisc as control. To be noted: both partners purified.

B1: His-tagged human TMEM219 (natural protein, UniProt Q86XT9 39-240, looked up)
chain: SFLLTHRTGLRSPDIPQDWVSFLRSFGQLTLCPRNGTVTGKWRGSHVVGLLTTLNFGDGPDRNKTRTFQATVLGSQMGLKGSSAGQLVLITARVTTERTAGTCLYFSAVPGILPSSQPPISCSEEGAGNATLSPRMGEECVSVWSHEGLVLTKLLTSEELALCGSRLLVLGSFLLLFCGLLCCVTAMCFHPRRESHWSRTRL
notes: also called recombinant human (rh) TMEM219; rTMEM219; source: HEK293T cells (pcDNA3.1), purified (Nickel beads)
Turning to B1, the Kd is about 288 nM.
